Among the data in article PMC8016844 are Kd values, retold here.

In general, Kd refers to the equilibrium constant for the complex coming apart.

Test [1] has as its target Grb2 (Homo sapiens) (UniProt P62993). The note with it: cited from earlier work.
The target of test [2] is isolated CSH3 domain of Grb2 (Grb2_(CSH3)). The test can be described thus: MST; target protein labelled with Atto 488 NHS ester, 100 nM; unlabelled ligand serially diluted; Monolith NT.115; 25 °C; 20 mM HEPES pH 7.5, 150 mM NaCl, 0.5 mM TCEP, 0.005% Tween 20.
In test [3] the target is Shp2 N-terminal SH2 domain (Shp2_(NSH2)) (UniProt Q06124). Described as above.

For the substance Grb2 (from UniProt P62993), in test [1], the Kd was 0.8 µM.
The substance “Shp2 PTP domain peptide TKCNNS322KPKK325SYIATQ” showed a Kd in test [2] of 173 µM.
Turning to “Shp2 PTP domain peptide VERGKS366KCVK369YWPDEY”, in test [2], the Kd was found to be 122 µM.
Turning to “Shp2 PTP domain peptide WPDHGV429PSDP432GGVLDF”, in test [2], the Kd stood at 18.1 µM.
“isolated CSH3 domain of Grb2 (Grb2_(CSH3)) (domain or fragment)” gave a Kd in test [3] of 207 µM.
